According to the supplement of paper PMC7877785:
± gives the uncertainty stated by the source.

Test: self-splicing fitness, log relative to wild type (ln ratio); higher = more splicing; Tetrahymena group I intron in knt gene, E. coli kanamycin selection, DiMSum; sequences stand for … in CUCUCU…GGAGGGAAAAGUUAUCAGGCAUGCACCUGGUAGCUAGUCUUUAAACCAAUAGAUUGCAUCGGUUUAAAAGGCAAGACCGUCAAAUUGCGGGAAAGGGGUCAACAGCCGUUCAGUACCAAGUCUCAGGGGAAACUUUGAGAUGGCCUUGCAAAGGGUAUGGUAAUAAGCUGACGGACAUGGUCCUAACCACGCAGCCAAGUCCUAAGUCAACAGAUCUUCUGUUGAUAUGGAUGCAGUUCACAGACUAAAUGUCGGUCGGGGAAGAUGUAUUCUUCUCAUAAGAUAUAGUCGGACCUCUCCUUAAUGGGAGCUAGCGGAUGAAGUGAUGCAACACUGGAGCCGCUGGGAACUAAUUUGUAUGCGAAAGUAUAUUGAUUAGUUUUGGAGUACUCGUGGUCG
Method in brief: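 Library with all eight P1ex-region intron nucleotides randomised, intron inside the knt kanamycin-resistance gene on pET-22b(+), in E. coli BL21(DE3). Cells grew overnight at 37°C or 30°C on LB agar with or without 25 μg/mL kanamycin (plus 100 μg/mL carbenicillin, 50 μM IPTG, 0.2% rhamnose), in six replicate transformations. Pooled colonies were amplicon-sequenced on Illumina HiSeq 2500. DiMSum fitness is the error-weighted combination of wild-type-normalised replicate fold changes, kanamycin versus none.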

Sequence | self-splicing fitness (ln) (30 °C) | self-splicing fitness (ln) (37 °C)
UCGAAGCAAUAUUACGGAAA | -1.95 ± 0.49 | -0.855 ± 0.25
CCGAAGCAAUAUUACGAAUC | -4.12 ± 0.32 | -3.04 ± 0.48
UGUGAGCAAUAUUACGAGGA | -2.55 ± 0.29 | -2.89 ± 0.31
CAGUAGCAAUAUUACGAACG | -0.0483 ± 0.12 | -0.375 ± 0.14
CCGGAGCAAUAUUACGUGGU | -3.01 ± 0.2 | 0.658 ± 0.18
CCAAAGCAAUAUUACGAAUU | -3.58 ± 0.15 | -3.46 ± 0.19
UCUAAGCAAUAUUACGGUAU | -4.13 ± 0.27 | -1.56 ± 0.21
CUGCAGCAAUAUUACGGAUA | -3.58 ± 0.29 | -2.69 ± 0.25
CCUCAGCAAUAUUACGGCUU | -1.94 ± 0.16 | -2.28 ± 0.21
UGGGAGCAAUAUUACGCCGG | -2.45 ± 0.23 | -2.19 ± 0.31
AAGGAGCAAUAUUACGUGUC | – | -2.12 ± 0.32
AGUGAGCAAUAUUACGGAUU | -3.48 ± 0.26 | -1.28 ± 0.21
GCUAAGCAAUAUUACGCAGC | -3.14 ± 0.4 | -2.62 ± 0.28
AGAAAGCAAUAUUACGAGCA | -0.695 ± 0.11 | -0.262 ± 0.16
UCCCAGCAAUAUUACGGGGC | -2.72 ± 0.17 | -2.84 ± 0.22
UAAUAGCAAUAUUACGAUUU | -2 ± 0.11 | -1.13 ± 0.11
CAUCAGCAAUAUUACGGCGU | -2.3 ± 0.14 | -1.94 ± 0.17
UGCAAGCAAUAUUACGAGGC | -4.02 ± 0.27 | -2.13 ± 0.23
AGAAAGCAAUAUUACGAAGU | -3.61 ± 0.27 | -2.15 ± 0.21
GUGAAGCAAUAUUACGGUCA | -0.465 ± 0.11 | 0.46 ± 0.12
UAGCAGCAAUAUUACGUGAU | -3.42 ± 0.13 | -1.09 ± 0.11
GCCGAGCAAUAUUACGCGCG | -2.53 ± 0.25 | –
UAUAAGCAAUAUUACGAUGC | -3.29 ± 0.36 | -2.63 ± 0.27
UUUUAGCAAUAUUACGUUCA | -1.18 ± 0.21 | -0.458 ± 0.22
ACCCAGCAAUAUUACGUUUC | -2.36 ± 0.062 | -1.35 ± 0.082
CACCAGCAAUAUUACGCAUU | -2.6 ± 0.086 | -1.86 ± 0.1

Sequence | self-splicing fitness (ln) (30 °C) | self-splicing fitness (ln) (37 °C)
UUACAGCAAUAUUACGUGGG | -2.85 ± 0.11 | -2.43 ± 0.13
GAUAAGCAAUAUUACGGUUA | -0.72 ± 0.12 | 0.108 ± 0.11
GGAGAGCAAUAUUACGUAGU | -1.91 ± 0.19 | -2.15 ± 0.3
ACCUAGCAAUAUUACGAGUG | -1.43 ± 0.077 | -0.982 ± 0.092
UGCCAGCAAUAUUACGAUAG | -2.17 ± 0.12 | -1.09 ± 0.12
CUAGAGCAAUAUUACGCAUA | -2.97 ± 0.27 | -2.93 ± 0.4
AAGUAGCAAUAUUACGGGGG | -2.88 ± 0.26 | -3.2 ± 0.35
UGAAAGCAAUAUUACGAUGA | -0.217 ± 0.088 | -0.415 ± 0.1
UCGAAGCAAUAUUACGCGGC | -3.35 ± 0.32 | -2.87 ± 0.36
GAUGAGCAAUAUUACGGGAG | -3.76 ± 0.25 | -1.54 ± 0.41
UGUUAGCAAUAUUACGGACU | -0.161 ± 0.079 | 0.414 ± 0.093
GUUUAGCAAUAUUACGCUCU | -0.694 ± 0.091 | -0.764 ± 0.11
CGUGAGCAAUAUUACGGCGC | -3.69 ± 0.34 | -2.43 ± 0.37
GCCCAGCAAUAUUACGCAUG | -3.92 ± 0.33 | -2.24 ± 0.38
CAUAAGCAAUAUUACGUGAC | -2.48 ± 0.15 | -2.03 ± 0.22
ACCCAGCAAUAUUACGUGGU | -3.89 ± 0.11 | -2.76 ± 0.14
CCCGAGCAAUAUUACGAUAA | -1.81 ± 0.23 | -2.73 ± 0.25
ACGAAGCAAUAUUACGCUGA | -0.881 ± 0.11 | -0.99 ± 0.1
CGAAAGCAAUAUUACGGUUU | -2.51 ± 0.095 | -1.51 ± 0.11
GCCAAGCAAUAUUACGCAUU | -1.35 ± 0.072 | -0.715 ± 0.081
AUCGAGCAAUAUUACGACAU | -0.347 ± 0.013 | 0.0643 ± 0.033
UUACAGCAAUAUUACGGCUC | -1.76 ± 0.16 | -0.974 ± 0.16
UCUGAGCAAUAUUACGGUCU | -2.46 ± 0.21 | -2.96 ± 0.37
ACCUAGCAAUAUUACGGCUG | -4.76 ± 0.36 | -2.32 ± 0.18
UCCUAGCAAUAUUACGCUGG | -3.84 ± 0.42 | -2.29 ± 0.32
UCCUAGCAAUAUUACGAAUC | – | -2.17 ± 0.29

Sequence | self-splicing fitness (ln) (30 °C) | self-splicing fitness (ln) (37 °C)
UCAUAGCAAUAUUACGUUAC | -3.58 ± 0.29 | -3.01 ± 0.33
UACGAGCAAUAUUACGUUUA | -2.32 ± 0.12 | -1.79 ± 0.12
UUUCAGCAAUAUUACGGUCC | -2.8 ± 0.37 | -0.245 ± 0.35
AUGCAGCAAUAUUACGGACG | -1.57 ± 0.12 | -0.811 ± 0.13
AACGAGCAAUAUUACGUCGG | -3.25 ± 0.26 | -0.594 ± 0.15
CCCAAGCAAUAUUACGGACA | -3.25 ± 0.27 | -2.07 ± 0.14
CGCCAGCAAUAUUACGUCGC | -3.23 ± 0.16 | -2.11 ± 0.2
UGCGAGCAAUAUUACGCUAG | -2.68 ± 0.45 | –
CAGUAGCAAUAUUACGUUUC | -3.64 ± 0.3 | -2.69 ± 0.3
AGAUAGCAAUAUUACGUUUU | -2.35 ± 0.09 | -1.68 ± 0.1
AUCGAGCAAUAUUACGAACG | -2.49 ± 0.22 | -1.65 ± 0.33
GUCAAGCAAUAUUACGGUCU | -2.7 ± 0.084 | -0.906 ± 0.075
AGCGAGCAAUAUUACGAGCG | -1.55 ± 0.14 | -0.201 ± 0.14
UUGCAGCAAUAUUACGCGCC | -2.28 ± 0.44 | –
CCGCAGCAAUAUUACGUAAG | 0.385 ± 0.056 | -0.112 ± 0.062
GAGUAGCAAUAUUACGCUUA | -1.45 ± 0.13 | -0.422 ± 0.12
GUCAAGCAAUAUUACGGCUC | -0.927 ± 0.057 | 0.181 ± 0.084
CAGUAGCAAUAUUACGGUGG | -0.646 ± 0.06 | -0.131 ± 0.09
CAAUAGCAAUAUUACGUGUG | -1.72 ± 0.053 | -0.748 ± 0.063
UGAAAGCAAUAUUACGAGAA | -2.32 ± 0.23 | -1.22 ± 0.15
GUAGAGCAAUAUUACGUGUU | -3.68 ± 0.21 | -2.04 ± 0.19
GAAAAGCAAUAUUACGCCAG | -2.72 ± 0.21 | -2.28 ± 0.32
GGCCAGCAAUAUUACGCUGU | -1.74 ± 0.08 | -1.37 ± 0.11
CGUAAGCAAUAUUACGUGUG | -1.29 ± 0.063 | -0.745 ± 0.078
